Starred links: 1 amine or outer side, 2 acyl side, 3 side chain; linkers in the order of their positions; H or OH if unused. Non-standard residues stand in square brackets, D forms with d. No end group written: not given here. Tyr(125I) = 125I-labelled Tyr, O=C([C@H](Cc1ccc(O[*:3])c([125I])c1)N[*:1])[*:2]
B1: Met-enkephalin (peptide, UniProt P01210 100-104, looked up)
peptide: YGGFM
notes: domain: Met-enkephalin
B2: [125I-Tyr11] SRIF (peptide, UniProt P61278 103-116, looked up)
peptide: AGCKNFFWKT[Tyr(125I)]TSC
modifications: ends and bridges not checked
B3: β-Endorphin (human) (peptide, UniProt P01189 237-267, looked up)
peptide: YGGFMTSEKSQTPLVTLFKNAIIKNAYKKGE
modifications: also: 125I-labelled where used as radioligand, site not given here
notes: domain: β-Endorphin; also called beta-endorphin
B4: dynorphin (form not specified) (peptide, UniProt P01213 207-223, looked up)
peptide: YGGFLRRIRPKLKWDNQ
B5: des-Tyr1-β-endorphin (peptide, UniProt P01189 238-267, looked up)
peptide: GGFMTSEKSQTPLVTLFKNAIIKNAYKKGE
notes: domain: des-Tyr1-β-endorphin; also called des-Tyrl-β-endorphin
B6: CTOP (D-Phe-Cys-Tyr-D-Trp-Orn-Thr-Pen-Thr-NH2) (peptide)
peptide: FCYWXTXT
modifications: D-Phe at 1, D-Trp at 4, Orn at 5 (printed Om), Pen at 7, C-terminal NH2; X in the letters stands for Orn 5 and Pen 7

How the values were obtained:
[1] = biological target: T1, mouse kappa opioid receptor (mORK1) (mouse, UniProt P33534 1-380); assay: competition vs [3H]U-69,593, PC12 membranes
T1 construct: Assayed in membranes of transfected COS-1, PC12 or COS-7 cells; also called msl-1; κ receptor
Experimental: (§1) Receptor binding assays were performed using membranes from either PC12 cells stably expressing the cloned mouse K receptor, CHO-DG44 cells stably expressing the mouse 8 receptor, or COS-7 cells transiently expressing the rat μ receptor 48-72 hours after transfection as previously described (4,10). For radioligand binding assays, cells were harvested in 50 mM Tris-HCl (pH 7.8) containing 1 mM ethylene glycol bis(β-aminoethyl ether)-N,N′-tetraacctic acid, 5 mM MgCl₂, 10 μg/ml leupeptin, 10 μg/ml pepstatin 200 μg/ml bacitracin and 0.5 μg/ml aprotinin (buffer 1) and centrifuged at 24,000 K g for 7 min at 4° C. The pellet was homogenized in buffer 1 using a Polytron (Brinkmann, setting 2.5 30 sec). The Homogenate was then centrifuged at 48,000 κ g for 20 min at 4° C. The pellet was homogenized in buffer 1 and this membrane preparation was used for the radioligand binding studies. […] The binding reaction was terminated by the addition of ice-cold 50 mM Tris-HCl buffer (pH 7.8) and rapid filtration over Whatman GF/B glass fiber filters which were pretreated with 0.5% polyethyleneimine/0.1% BSA for at least 1 hour. The filters were then washed with 12 mL of ice-cold Tris-HCl buffer and the bound radioactivity counted in a scintillation counter. Data from radioligand binding studies were used to generate inhibition curves.

[2] = biological target: T1, mouse kappa opioid receptor (mORK1); assay: radioligand binding, COS-1 membranes
[3] = biological target: T2, mouse delta opioid receptor (mORD1) (mouse, UniProt P32300 1-372); assay: radioligand binding, COS-1 membranes
T2 construct: Assayed in membranes of transfected COS-1, CHO-DG44 or COS-7 cells; also called msl-2; δ receptor

rat µ opioid receptor = biological target: T3, rat µ opioid receptor (rat, UniProt P33535 1-398); assay: competition vs [3H]DAMGO, COS-7 membranes
T3 construct: whole, on cells; Assayed in membranes of transfected COS-7 cells; also called cloned µ receptor; rat µ receptor
T3 sequence (P33535 whole entry): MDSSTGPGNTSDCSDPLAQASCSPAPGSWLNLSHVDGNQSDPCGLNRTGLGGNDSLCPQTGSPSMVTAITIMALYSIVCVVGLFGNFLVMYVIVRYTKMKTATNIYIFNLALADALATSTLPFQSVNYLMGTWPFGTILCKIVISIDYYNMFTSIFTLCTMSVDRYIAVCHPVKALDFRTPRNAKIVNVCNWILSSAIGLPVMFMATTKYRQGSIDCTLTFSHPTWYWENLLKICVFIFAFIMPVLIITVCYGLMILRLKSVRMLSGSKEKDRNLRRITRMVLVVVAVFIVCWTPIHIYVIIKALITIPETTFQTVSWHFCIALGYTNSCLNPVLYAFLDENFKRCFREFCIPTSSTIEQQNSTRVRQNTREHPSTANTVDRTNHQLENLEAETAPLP
Experimental: as §1

[4] = biological target: T2, mouse delta opioid receptor (mORD1); assay: competition vs [3H]naltrindole, CHO-DG44 membranes
Experimental: as §1

[5] = biological target: T4, κ1-78/δ70-372 chimeric opioid receptor (mouse); assay: competition vs [3H]naloxone, COS-7 membranes
T4 construct: Expressed in COS-7 cells, membranes assayed
T4 chain: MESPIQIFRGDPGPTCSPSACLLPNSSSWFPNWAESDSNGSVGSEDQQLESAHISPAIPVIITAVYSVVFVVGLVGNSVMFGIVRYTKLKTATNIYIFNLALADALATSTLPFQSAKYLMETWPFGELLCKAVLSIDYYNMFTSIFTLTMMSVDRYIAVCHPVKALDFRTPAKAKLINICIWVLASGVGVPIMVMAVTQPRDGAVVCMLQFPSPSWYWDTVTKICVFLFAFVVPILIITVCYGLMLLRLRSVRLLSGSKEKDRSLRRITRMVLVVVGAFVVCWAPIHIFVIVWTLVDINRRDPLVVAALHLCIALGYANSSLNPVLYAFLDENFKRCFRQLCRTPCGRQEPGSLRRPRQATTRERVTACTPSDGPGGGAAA
Experimental: The homogenate is centrifuged at 48,000×g for 20 min at 4° C. and the pellet resuspended in Buffer 1 and used in the radioligand binding assay. […] All radioligands were obtained from NEN/Dupont (Boston, Mass.). […] The binding reaction is terminated by the addition of ice-cold 50 mM Tris-HCL (pH 7.8) and rapid filtration over Whatman GF/B glass fiber filters that were pretreated with 0.5% polyethleneimine and 0.1% bovine serum albumin. The filters were washed with 12 ml of ice-cold buffer and soaked overnight in scintillation fluid. The bound radioactivity was determined using a scintillation counter.

[6] = biological target: cloned human µ opioid receptor (human, UniProt P35372 1-400); assay: competition vs [3H]DAMGO, COS-7 membranes
Sequence of cloned human µ opioid receptor (P35372 whole entry): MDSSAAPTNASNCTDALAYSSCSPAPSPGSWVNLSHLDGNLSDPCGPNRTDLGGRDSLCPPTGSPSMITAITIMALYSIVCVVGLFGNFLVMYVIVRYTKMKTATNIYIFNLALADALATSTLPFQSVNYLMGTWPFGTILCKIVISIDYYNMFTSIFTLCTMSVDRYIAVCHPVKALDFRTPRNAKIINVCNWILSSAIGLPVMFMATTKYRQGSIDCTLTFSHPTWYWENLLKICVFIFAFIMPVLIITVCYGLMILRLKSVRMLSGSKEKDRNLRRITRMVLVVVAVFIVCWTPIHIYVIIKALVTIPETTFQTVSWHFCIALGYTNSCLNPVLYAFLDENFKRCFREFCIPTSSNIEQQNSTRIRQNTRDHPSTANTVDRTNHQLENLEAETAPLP
Experimental: For radioligand binding assays, cells were harvested in 50 mM Tris-HCl (pH 7.8) containing 1 mM ethylene glycol bis(b-aminoethyl ether)-N,N′-tetraacetic acid, 5 mM MgCl₂, 10 mg/ml leupeptin, 10 mg/ml pepstatin, 200 mg/ml bacitracin and 0.5 mg/ml aprotinin (buffer 1) and centrifuged at 24,000×g for 7 min at 4° C. The pellet was homogenized in buffer 1 using a Polytron (Brinkmann, setting 2.5, 30 sec). The homogenate was then centrifuged at 48,000×g for 20 min at 4° C. The pellet was homogenized in buffer 1 and this membrane preparation was used for the radioligand binding studies. […] The binding reaction was terminated by the addition of ice-cold 50 mM Tris-HCl buffer (pH 7.8) and rapid filtration over Whatman GF/B glass fiber filters which were pretreated with 0.5% polyethyleneimine/0.1% BSA for at least 1 hour. The filters were then washed with 12 mL of ice-cold Tris-HCl buffer and the bound radioactivity counted in a scintillation counter. Data from radioligand binding 10 studies were used to generate inhibition curves.

Row | Binder | Ki [1] [nM] | Ki (rat µ opioid receptor) [nM] | Ki [4] [nM] | Ki [6] [nM] | also measured
1 | B1 | > 1000 |  |  |  | 
2 | B2 |  |  |  |  | binding result [2]: no binding; binding result [3]: no binding
3 | B3 |  | 1 | 1 |  | 
4 | B4 |  |  |  |  | IC50 [5]: 40 nM
5 | B5 | > 1000 | > 1000 | > 1000 | > 1000 | 
6 | B6 |  |  |  | 3.9 | 
